Experimental data taken from paper PMC5391958, “New function of aldoxime dehydratase: Redox catalysis and the formation of an expected product” (PLoS ONE, 2017).

Columns and labels:
Test in all cases: purified protein
Format in all cases: biochemical, Pseudomonas chlororaphis
COc1ccccc1O = tested on: T1, COc1ccccc1O; settings: apparent
T1 construct: recombinant from pET-oxdA (mutants in pET-24a(+)), E. coli BL21-CodonPlus(DE3)-RIL, purified heme enzyme; Mr 40,127; no tag mentioned

[1] = tested on: T2, CCn1c(=NN=c2sc3cc(S(=O)(=O)O)ccc3n2CC)sc2cc(S(=O)(=O)O)ccc21; settings: apparent
T2 construct: recombinant from pET-oxdA (mutants in pET-24a(+)), E. coli BL21-CodonPlus(DE3)-RIL, purified heme enzyme; Mr 40,127; no tag mentioned

purified protein [2] = substrate: CCn1c(=NN=c2sc3cc(S(=O)(=O)O)ccc3n2CC)sc2cc(S(=O)(=O)O)ccc21; settings: apparent, 25 mM H2O2, 100 mM potassium phosphate pH 7.0, 30°C
purified protein [3] = substrate: COc1ccccc1O; settings: apparent, 100 mM H2O2, 100 mM potassium phosphate pH 7.0, 30°C
[4] = 100 mM H2O2, 100 mM potassium phosphate pH 7.0, 30°C
[5] = 25 mM H2O2, 100 mM potassium phosphate pH 7.0, 30°C
[6] = 10 mM H2O2, 100 mM potassium phosphate pH 7.0, 30°C

With “OxdA(WT); aldoxime dehydratase (OxdA) (Pseudomonas chlororaphis subsp. chlororaphis; H320D)” the Km (COc1ccccc1O; [4]) was 1000 ± 400 µM, the Vmax (COc1ccccc1O; [4]) was 50 µmol/min/mg and the kcat (COc1ccccc1O; [4]) was 33 ± 3 s⁻¹. For the same molecule, the kcat/Km (COc1ccccc1O; [4]) was 32000 M⁻¹ s⁻¹, the Km [1, 5] was 120 ± 20 µM and the Vmax [1, 5] was 33 µmol/min/mg. It also gave a kcat [1, 5] of 22 ± 1 s⁻¹ and a kcat/Km [1, 5] of 190000 M⁻¹ s⁻¹.

“OxdA(WT); aldoxime dehydratase (OxdA) (Pseudomonas chlororaphis subsp. chlororaphis; H320A)” gave a Km (COc1ccccc1O; [5]) of 840 ± 170 µM, a Vmax (COc1ccccc1O; [5]) of 1.2 µmol/min/mg and a kcat (COc1ccccc1O; [5]) of 0.81 ± 0.05 s⁻¹. It also gave a kcat/Km (COc1ccccc1O; [5]) of 970 M⁻¹ s⁻¹, a Km [1, 6] of 210 ± 30 µM and a Vmax [1, 6] of 1.3 µmol/min/mg. The kcat [1, 6] was 0.85 ± 0.07 s⁻¹ and the kcat/Km [1, 6] was 4000 M⁻¹ s⁻¹.

B1: OxdA(WT); aldoxime dehydratase (OxdA) (Pseudomonas chlororaphis subsp. chlororaphis) (protein)
chain: MESAIDTHLKCPRTLSRRVPEEYQPPFPMWVARADEQLQQVVMGYLGVQYRGEAQREAALQAMRHIVSSFSLPDGPQTHDLTHHTDSSGFDNLMVVGYWKDPAAHCRWLRSAEVNDWWTSQDRLGEGLGYFREISAPRAEQFETLYAFQDNLPGVGAVMDSTSGEIEEHGYWGSMRDRFPISQTDWMKPTNELQVVAGDPAKGGRVVIMGHDNIALIRSGQDWADAEAEERSLYLDEILPTLQDGMDFLRDNGQPLGCYSNRFVRNIDLDGNFLDVSYNIGHWRSLEKLERWAESHPTHLRIFVTFFRVAAGLKKLRLYHEVSVSDAKSQVFEYINCHPHTGMLRDAVVAPT
notes: recombinant from pET-oxdA (mutants in pET-24a(+)), E. coli BL21-CodonPlus(DE3)-RIL, purified heme enzyme; Mr 40,127; no tag mentioned
In the case of B1, the Km (purified protein [2]) is reported as 210 ± 40 µM, the Vmax (purified protein [2]) is reported as 3.4 µmol/min/mg and the kcat (purified protein [2]) is reported as 2.3 ± 0.1 s⁻¹. For the same molecule, the kcat/Km (purified protein [2]) was 11000 M⁻¹ s⁻¹, the Km (purified protein [3]) was 26 ± 10 µM and the Vmax (purified protein [3]) was 20 µmol/min/mg. It also gave a kcat (purified protein [3]) of 14 ± 1 s⁻¹ and a kcat/Km (purified protein [3]) of 530000 M⁻¹ s⁻¹.
